The data set is described as follows: yeast display, Sf9 membrane polyspecificity reagent, FACS + sequencing; frameworks hold sequencing errors. The essentials: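 Nanobodies came from a synthetic yeast display library in Saccharomyces cerevisiae BJ5465, induced with galactose for 36–48 hours and stained for 1 hour at 4 °C with 10% biotinylated, detergent-solubilized Sf9 membrane reagent. Cells were enriched on streptavidin microbeads and then FACS-sorted, with low and high (top ~1%) gates set on anti-HA fluorescence for expression and streptavidin fluorescence for reagent binding. Each polyreactivity label reflects the gate a clone came from. Genes were amplified by colony PCR, sequenced by MiSeq 2 × 250 and filtered by CDR length.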
For the sequence “QVQLVESGAGIVQAGGSLRLSCAASGRTFNWYAMGLYTQPPGKERELVAAITYPGGTTYYADSVKGRFTISRDNAKNTVYLQMNSLKPEDTAVYYCAATFRYRRVTPTTRFNYWGQGTQVTVSS”, the “polyreactivity (PSR sort gate)” value is “high polyreactivity”. Turning to “QVQLVESGAGLVQAGGILRLSCAASGRTFYRNTMGWYRQAPGKEREFVAAISATAGRTYYADSVKGRFTISRDNAKNTVYLQMNSLKPEDTAVYYCAAVPLRNRLPNSWPALDYWGQGTQVTVSS”, the “polyreactivity (PSR sort gate)” value is on record as “high polyreactivity”. For the sequence “QVQLVESGAGLVQAGGRLRLSCAASGFTFYYNAMGWYRQAPGKEREFVAAISRSAGSTTYADSVKGRFTISRDNAKNTVYLQMNSLKPEDTAVYYCNARRSRGKSYDYWGQGTQVTVSS”, the “polyreactivity (PSR sort gate)” value is listed as “high polyreactivity”.

Regarding “QVQLVESGAGLVQAGGSLRFSCAASGFIFVAYAMGLYRPAPGKERELVAAITSSGGTTYYADSVKGRFTISRDNAKNSVYFQMNSLKPEDTAVYYSAAYRRRSPFEYWGQGTQVNVSS”, the “polyreactivity (PSR sort gate)” value is reported as “high polyreactivity”. “QVQLVESGAGLVQAGGSLRISCDASGSIFWSYAMGWYRQAPGKERELVADITGIGGSTYYADSVKGRFTISRDNAKNTVYLQMNSLKPEDTAVYYCAADTWFTAQTYNFYYRGQGTQVTVSS”: the “polyreactivity (PSR sort gate)” value is listed as “high polyreactivity”. For the sequence “QVQLVESGAGLVQAGGSLRLSCAASGFTLVLNAMGGYSQAPGKERELVAAIRRSAGSTYYADSVKGRFTISRDNAKNTVYLQMNSLKPEDTAVYYSNADYTYTDRRFAPAGGWYYYWGQGTQVTVSS”, the “polyreactivity (PSR sort gate)” value was “low polyreactivity”.

Turning to “QVQLVESGAGLVQAGGSLRLSCAASGGTLRYYAMGWYRPAPGKEREFVASISRSGGSTYYADSVKGRFTISRYNAKNTVYLQMNSLKPEDTAVYYCAAYWSPGYTTGRGYWGQGTQVTVSS”, the “polyreactivity (PSR sort gate)” value was “high polyreactivity”. Turning to “QVQLVESGAGLVQAGGSLRLSCAASGLTFIYNAMVWYRQAPGKERELVAAISGNGGDTYYADSVKGRFTLSRDNAKNTVYLQMNSLKPEDTAVYYCAADYAYTPITCDEYWGQGTKVTVSS”, the “polyreactivity (PSR sort gate)” value was “low polyreactivity”. Regarding “QVQLVESGAGLVQAGGSLRLSCAASGLTFRSYAMGWYRQAPGKERELVAAITRSGGSTYYADSVKGRFTISRDNAKNTVYLQMNSLKPEDTAVYYCAARYKGNPDRYGYWGQGTQVTVSS”, the “polyreactivity (PSR sort gate)” value was “high polyreactivity”.

For the sequence “QVQLVESGAGLVQAGGSLRLSCAASGPILRTYAKGWYRQAPGKERELVAAISRSGGSSYYADSVKGRFTLSRDNAKNTVYLLMNSLKPEDTAVYYCNKAYGGRGYKYEYWGQGSQVTVSS”, the “polyreactivity (PSR sort gate)” value is reported as “high polyreactivity”. As for “QVQLVESGAGLVQAGGSLRLSCAASGRTFGTNTKGWYRPAPGKEREFVATITSSGGSTYYADSVKGRFTISRDNAKNTVYLQMNSLKPEDTAVYYCATDPYGGKTQYPSLRYDYWGQGTQVTVSS”, the “polyreactivity (PSR sort gate)” value is “low polyreactivity”. Take “QVQLVESGAGLVQAGGSLRLSCAASGSIFNSYAMGWYRQPPGKERELVAAISKAGGSTYYADSVKGRFTISRDNAKNTVYLQMNSQKPEDTAVYYCAARYGRCYDSAYNYWGQGTQVTVSS”: the “polyreactivity (PSR sort gate)” value is reported as “high polyreactivity”. As to “QVQLVESGAGLVQAGGSLRLSCAASGSIFVYYTMGCYRQAPGKEREFVAAISFSGGSTYADSVKGRFTISRDNAKNTVYLQMNSLKPEDTAVYYCNADRWLYTPSKFVEMDFWGQGTQVTVSS”, the “polyreactivity (PSR sort gate)” value is recorded as “low polyreactivity”. The entry for “QVQLVESGAGLVQAGGSLRLSCAASGSNFKWYAMGLYRQAPGKEREFVAAITWSGSGTFYADSVKGRFTISRDNAKKTVYLQMNSLKPEDTAVYYCNKADSYLLYSVTARYFRGFYSWGQVTQVTVSS” is “high polyreactivity”.

Consider “QVQLVESGAGLVQAGGSLRLSCAASGSSFYFNAMGLYRQAPGKERELVAAIDWSGGSTYYADSVKGRFTISRDNAKNTVYLQMNSLKPEDTAVYYCAAPYHYYGNTVGYADYDYWGQVTQVTVSS”, for which the “polyreactivity (PSR sort gate)” value is reported as “low polyreactivity”. As for “QVQLVESGAGLVQAGGSLRLSCAASGSTFPFYAMGWSRQAPGKERELVAAITSGGSTYADSVKGRFTISRDNAKNTVYLQMNSLKPEDTAVYYCNAEQNPSGLYDYRGVEGEMGYWGQGTQVTVSS”, the “polyreactivity (PSR sort gate)” value is “low polyreactivity”.

With “QVQLVESGAGLVQAGGSLRLSCAASGSTFSRYAMGWYRQAPGKERELVAAISSRGGSTYYADSVKGRFTISRDNAKNTVYLQMNSLKPEDTAVYYCNALTSYQNHVYPYDYWGQGTQVTVSS”, the “polyreactivity (PSR sort gate)” value is recorded as “high polyreactivity”.

As to “QVQLVESGAGLVQAGGSLRLSCAASGSTFSYYAMGWSRQAPGKERELVAAITSSGGSTYYADSVKGRFTISRDNAKNTVYLQMNSLKQEDTAVYYCNTAYHVPYDYWGQGTQVTVSS”, the “polyreactivity (PSR sort gate)” value was “low polyreactivity”.

Take “QVQLVESGAGLVQAGGSLRLSCAASGSTFSYYTMGWYRHAPGKERELVAAITSGGPTNYADSVKGRFTISRDNAKNTVYLQMNSLKPEDTAVYYCAAALYYGWGYYYWGQGTQVTVSS”: the “polyreactivity (PSR sort gate)” value is reported as “low polyreactivity”. Regarding “QVQLVESGAGLVQAGGSLRLSCAASGSTSTLNAMGWYRQAPGTERELVAAISRSGTSTYYADSVKGRFTISRDNAKNTVYLQMNSLKPEDTAVYYCAAYSYGPPYYYWGQGTQVTVSS”, the “polyreactivity (PSR sort gate)” value is listed as “high polyreactivity”. Consider “QVQLVESGAGLVQAGGSLRLSCAASVRIFFYGMGWYIQAPGKQMELVATITSVSNTYYADSVKGRFTISRDNAKNTVYLQMNSLKPEDTAVYYCAARQDRYRYRYGYWGHGTQVTVSS”, for which the “polyreactivity (PSR sort gate)” value is “high polyreactivity”.

On to “QVQLVESGAGLVQAGGSLRLSCAAYGFIFRTNAMGWYRQAPGKERELVAAISNSGGRTYYADSVKGRFTLSRDNSKNTVYLQMNSLKPEDTAVYYCAAVLWYDIYYGGDYWGQGTQVTVSS”, for which the “polyreactivity (PSR sort gate)” value is listed as “high polyreactivity”.

For the sequence “QVQLVESGAGLVQAGGSLRLSCADSVNTFWYYTMGWYRQAPGKERELVAAISRGGRPYYADSVKGRFTISRDNAKNTVYLQMNSLKPEDTAVYNCNKPAPYTGSFDRSGIFDYWGQGTQVTVSS”, the “polyreactivity (PSR sort gate)” value is listed as “high polyreactivity”. On to “QVQLVESGAGLVQAGGSLRLSCASSGYIFDRYAMGWYRQAPGKERELVAAISGRGGSTYYADSVKGRFTISRDNAKYTVYLKMNSLKPEDTAVYYCARDVYVRYGQRARYDSWGQGTQVTVSS”, for which the “polyreactivity (PSR sort gate)” value was “high polyreactivity”. Consider “QVQLVESGAGLVQAGGSLRLSFAASGRTFVYNAMAWYRQAPGKERELVAAIDGGGDRTYYADSVKGRFTISRDNAKNTVYLQMNSLKPEDTAVYYCARDPGDTYYYSYPEGDYWGQGTLVTVSS”, for which the “polyreactivity (PSR sort gate)” value was “low polyreactivity”. As for “QVQLVESGAGLVQAGGSLRLSSAASGGTFGHYVMGWYRPAPGKERELVAVISRRGGSTYYADSVKGRFTISRDTAKNTVYLQMNSLKPEDTAVYYCAAYQDVSYFKYSPYDYWGQGTQVTVSS”, the “polyreactivity (PSR sort gate)” value is recorded as “high polyreactivity”. As for “QVQLVESGAGLVQAGGSLRLTCAASGRIFVINAMGWLRQAPGKETELVAPITGGGSTNYADSVKGRFTISRDNAKNTVYLQMNSLKPEDTAVYYCAADYRPVRRFYYSRYDYWGQGTQVTVSS”, the “polyreactivity (PSR sort gate)” value is on record as “low polyreactivity”. To “QVQLVESGAGLVQAGGSLRVSCAASGLIFAWYAMGWYRQAPGKERELVATIDVSGGTYYADSVKGRFTISRDNAQNTVYLQMNSLNPEDTAVYYCAAGVTYWYDAPEYYYWGQVTQVTVSS” belongs “high polyreactivity”. “QVQLVESGAGLVQAGGTLRLSCAASGFTCRYYAMGWSRQAPGKERELVASISWSGDSTYYADSVKGRFTISRDNAKNTGYLQMNSLKPEETAFYYCARQTGFPRSYIYRMYYWGQGTQVTVSS”: the “polyreactivity (PSR sort gate)” value is reported as “high polyreactivity”. Regarding “QVQLVESGAGLVQAGVSLGLSCAASGFTFVRDAMGWYRQAPGKEREFVASISARGGNTFYADSVQGRFSISRDNAKNTVYLKMNSLKPEDTAVYYCAKRGPYGTGYGYWGQGTQVTVSS”, the “polyreactivity (PSR sort gate)” value was “high polyreactivity”. “QVQLVESGAGLVQARGSLRLSCAASGFTISYYAMGWYRQAPVKERELVAAITSGGSTYYADYVKGRFTISRDNAKNTVYVQMNSLKPEDTAVYYCIADGWYYPTDDYWGQGSQVTVSS”: the “polyreactivity (PSR sort gate)” value is “low polyreactivity”. For the sequence “QVQLVESGAGLVQEGGSLRLSCAASGFTFFGYAMGWYRQEPGKERELVATISDTGGSTYADSVKGRFTISRDTAKNTVYLQMNCVKPEDTAVYYCNARSVFYSMDYWGQGTQVTVSS”, the “polyreactivity (PSR sort gate)” value is recorded as “low polyreactivity”. Regarding “QVQLVESGAGLVQEGGSLRLSCAASGSIFVGNAMGWYRQAPGKERELVATISWSGGSTYYADSVKGRFTISRDNAKNTVYLQMNSLKPEDTAVYYCAKTPYRRYRYGGYTYRTYDYWGQGTQVTVSS”, the “polyreactivity (PSR sort gate)” value is listed as “low polyreactivity”. As for “QVQLVESGAGLVRAGGSLRISCAASGNIYGANTMGWYRQAPGKERELDATITWSGGDTYYADSVKGRFTISRDNAKNSVYLQMNSLKPEDTAVYYCATRRFRYRPPFKYDYWVQGTQVTVSS”, the “polyreactivity (PSR sort gate)” value is given as “low polyreactivity”. The entry for “QVQLVESGARLVPAGGTLRLSFADYGFNFGQYAMAWYRQAPGKERELVAAISWSGGSTYYAESVKGRFTISRDNAKNTVYLQMNSLKPEDTAVYYCGEELGDYWGQGTQVTVSS” is “high polyreactivity”; for “QVQLVESGARLVQEGGSLRLSCAASGSIFGRYVMGGYRQEPGKEREFVAAITYSGSSTYYADSVKGRFTISRDNAKNTVYLQMNSLKPEDSAVYYCNTYPGSFYWMGYWGQGTQVTVSS” it is “high polyreactivity”; for “QVQLVESGCGLVHAGGSLRLSCAASGRILRYYAMGWYGQAPGKDRELVAVITSSDGSTYYADSVKGRITISRDNAMNTVYLQMNSLKPEDTAVYYCAAAPLWRLASWWDPYRRYDYWGQGTQVTVSS” it is “low polyreactivity”. To “QVQLVESGCGLVHAGGSLRLSCAASGSNFGDYAMGCYRQAPGKERELVAAITKSGGTTYYADSVKGRFTISRDNAKNTVYLQMNSLKPEDTSFYYCAADPIRYRSRHKYGYWGQGTQVTVSS” belongs “low polyreactivity”; to “QVQLVESGEGLVQAGGSLRLSCAASGRIFYSNDMGWYRQAPGKEREFVAAITDSGGSTYYADSVKGRFTISRDNAKNTVYLQMNSLKPEDTAGYYCAKRQYQSYIRGPYYYWGQGTQVNVSS”, “low polyreactivity”; to “QVQLVESGGALDQAGGRLPLSSAASGSIFRINAMRLYRQAPGKVRELVAAISWSGGSTYYADSVKGRFTISRDNAKNTVYLQMNSLKQEDTAVYYCADVVSKSSFDYWVQGTQVTVSS”, “low polyreactivity”.
